This note sets out measurements from the supplement of paper PMC9428881.

This data set is described as follows: background-corrected fluorescence of 3'-dye-labeled ssDNA relative to brightest sequence (3'-GCGCG) (fraction); higher = brighter dye fluorescence (less quenching). The gist of the method: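 Each of 1024 permuted pentamers was synthesized as single-stranded DNA on glass slides by light-directed phosphoramidite chemistry, with a 3' Cy3 or Cy5 dye alongside. Arrays were scanned at 532 or 635 nm before and after overnight deprotection with ethylenediamine/ethanol. Values average 10 features per array across at least 3 syntheses. The fluorescence readout, with unlabeled-oligo background removed, is given relative to the brightest sequence.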

± gives the standard error.

As for “TTTTTTGATGCTGATGAGCATTTTTTTTTTTTTTTCACCT [TCCAC]”, the background-corrected fluorescence is, setting by setting: (dye: Cy3 (3' terminal)) 0.457 ± 0.021; (dye: Cy5 (3' terminal)) 0.326 ± 0.03.
In the same order, the values of “TTTTTTGATGCTGATGATCATTTTTTTTTTTTTTTCACCG [GCCAC]” are 0.505 ± 0.024 and 0.423 ± 0.058.
In the same order, the values of “TTTTTTGATGCTGATGATGATTTTTTTTTTTTTTTCACCC [CCCAC]” are 0.37 ± 0.028 and 0.271 ± 0.019.
In the same order, the values of “TTTTTTGATGCTGATGATGCTTTTTTTTTTTTTTTCACCA [ACCAC]” are 0.493 ± 0.019 and 0.375 ± 0.043.
In the case of “TTTTTTGATGCTGATGCGCATTTTTTTTTTTTTTTCACAT [TACAC]”, the background-corrected fluorescence by setting is: (dye: Cy3 (3' terminal)) 0.521 ± 0.02; (dye: Cy5 (3' terminal)) 0.368 ± 0.016.
In the same order, the values of “TTTTTTGATGCTGATGCTCATTTTTTTTTTTTTTTCACAG [GACAC]” are 0.481 ± 0.031 and 0.384 ± 0.019.
In the same order, the values of “TTTTTTGATGCTGATGCTGATTTTTTTTTTTTTTTCACAC” are 0.392 ± 0.006 and 0.311 ± 0.024.
For “TTTTTTGATGCTGATGCTGCTTTTTTTTTTTTTTTCACAA [AACAC]”, in that order: 0.562 ± 0.022 and 0.411 ± 0.021.
In the case of “TTTTTTGATGCTGCGCAGCATTTTTTTTTTTTTTTCAATT [TTAAC]”, the background-corrected fluorescence reads like this: (dye: Cy3 (3' terminal)) 0.538 ± 0.027; (dye: Cy5 (3' terminal)) 0.385 ± 0.029.
On to “TTTTTTGATGCTGCGCATCATTTTTTTTTTTTTTTCAATG [GTAAC]”, for which the background-corrected fluorescence amounted to 0.53 ± 0.029 (dye: Cy3 (3' terminal)) and 0.364 ± 0.026 (dye: Cy5 (3' terminal)).
“TTTTTTGATGCTGCGCATGATTTTTTTTTTTTTTTCAATC [CTAAC]” gave a background-corrected fluorescence (dye: Cy3 (3' terminal)) of 0.421 ± 0.026 and a background-corrected fluorescence (dye: Cy5 (3' terminal)) of 0.284 ± 0.013.
In the same order, the values of “TTTTTTGATGCTGCGCATGCTTTTTTTTTTTTTTTCAATA [ATAAC]” are 0.574 ± 0.023 and 0.422 ± 0.042.
In the same order, the values of “TTTTTTGATGCTGCTCAGCATTTTTTTTTTTTTTTCAAGT [TGAAC]” are 0.629 ± 0.0081 and 0.478 ± 0.039.
In the case of “TTTTTTGATGCTGCTCATCATTTTTTTTTTTTTTTCAAGG [GGAAC]”, the background-corrected fluorescence is, setting by setting: (dye: Cy3 (3' terminal)) 0.579 ± 0.028; (dye: Cy5 (3' terminal)) 0.489 ± 0.029.
With “TTTTTTGATGCTGCTCATGATTTTTTTTTTTTTTTCAAGC [CGAAC]”, the background-corrected fluorescence by setting is: (dye: Cy3 (3' terminal)) 0.514 ± 0.024; (dye: Cy5 (3' terminal)) 0.426 ± 0.07.
For “TTTTTTGATGCTGCTCATGCTTTTTTTTTTTTTTTCAAGA [AGAAC]”, in that order: 0.683 ± 0.036 and 0.543 ± 0.026.
In the same order, the values of “TTTTTTGATGCTGCTGAGCATTTTTTTTTTTTTTTCAACT” are 0.53 ± 0.011 and 0.342 ± 0.018.
In the same order, the values of “TTTTTTGATGCTGCTGATCATTTTTTTTTTTTTTTCAACG [GCAAC]” are 0.535 ± 0.022 and 0.408 ± 0.039.
Sequence “TTTTTTGATGCTGCTGATGATTTTTTTTTTTTTTTCAACC [CCAAC]” had a background-corrected fluorescence (dye: Cy3 (3' terminal)) of 0.377 ± 0.027 and a background-corrected fluorescence (dye: Cy5 (3' terminal)) of 0.265 ± 0.023.
Turning to “TTTTTTGATGCTGCTGATGCTTTTTTTTTTTTTTTCAACA [ACAAC]”, the background-corrected fluorescence is 0.489 ± 0.0058 (dye: Cy3 (3' terminal)) and 0.368 ± 0.022 (dye: Cy5 (3' terminal)).
In the same order, the values of “TTTTTTGATGCTGCTGCGCATTTTTTTTTTTTTTTCAAAT [TAAAC]” are 0.553 ± 0.017 and 0.41 ± 0.061.
For “TTTTTTGATGCTGCTGCTCATTTTTTTTTTTTTTTCAAAG [GAAAC]”, in that order: 0.535 ± 0.017 and 0.396 ± 0.026.
In the same order, the values of “TTTTTTGATGCTGCTGCTGATTTTTTTTTTTTTTTCAAAC” are 0.428 ± 0.03 and 0.323 ± 0.031.
With “TTTTTTGATGCTGCTGCTGCTTTTTTTTTTTTTTTCAAAA [AAAAC]”, the background-corrected fluorescence amounted to 0.569 ± 0.015 (dye: Cy3 (3' terminal)) and 0.47 ± 0.03 (dye: Cy5 (3' terminal)).
For “TTTTTTGCGCAGCAGCAGCATTTTTTTTTTTTTTTATTTT”, in that order: 0.488 ± 0.022 and 0.381 ± 0.02.
In the same order, the values of “TTTTTTGCGCAGCAGCATCATTTTTTTTTTTTTTTATTTG [GTTTA]” are 0.5 ± 0.026 and 0.355 ± 0.025.
The sequence “TTTTTTGCGCAGCAGCATGATTTTTTTTTTTTTTTATTTC [CTTTA]” showed a background-corrected fluorescence (dye: Cy3 (3' terminal)) of 0.404 ± 0.0099 and a background-corrected fluorescence (dye: Cy5 (3' terminal)) of 0.307 ± 0.019.
For “TTTTTTGCGCAGCAGCATGCTTTTTTTTTTTTTTTATTTA”, in that order: 0.545 ± 0.017 and 0.432 ± 0.031.
In the case of “TTTTTTGCGCAGCATCAGCATTTTTTTTTTTTTTTATTGT [TGTTA]”, the background-corrected fluorescence is, setting by setting: (dye: Cy3 (3' terminal)) 0.589 ± 0.027; (dye: Cy5 (3' terminal)) 0.486 ± 0.037.
For “TTTTTTGCGCAGCATCATCATTTTTTTTTTTTTTTATTGG [GGTTA]”, in that order: 0.549 ± 0.038 and 0.476 ± 0.055.
“TTTTTTGCGCAGCATCATGATTTTTTTTTTTTTTTATTGC [CGTTA]” had a background-corrected fluorescence (dye: Cy3 (3' terminal)) of 0.525 ± 0.024 and a background-corrected fluorescence (dye: Cy5 (3' terminal)) of 0.402 ± 0.051.
In the same order, the values of “TTTTTTGCGCAGCATCATGCTTTTTTTTTTTTTTTATTGA [AGTTA]” are 0.643 ± 0.018 and 0.555 ± 0.03.
In the same order, the values of “TTTTTTGCGCAGCATGAGCATTTTTTTTTTTTTTTATTCT [TCTTA]” are 0.45 ± 0.021 and 0.326 ± 0.021.
Take “TTTTTTGCGCAGCATGATCATTTTTTTTTTTTTTTATTCG [GCTTA]”: the background-corrected fluorescence reads like this: (dye: Cy3 (3' terminal)) 0.519 ± 0.034; (dye: Cy5 (3' terminal)) 0.388 ± 0.021.
In the same order, the values of “TTTTTTGCGCAGCATGATGATTTTTTTTTTTTTTTATTCC [CCTTA]” are 0.404 ± 0.016 and 0.272 ± 0.02.
“TTTTTTGCGCAGCATGATGCTTTTTTTTTTTTTTTATTCA [ACTTA]” yielded a background-corrected fluorescence (dye: Cy3 (3' terminal)) of 0.484 ± 0.035 and a background-corrected fluorescence (dye: Cy5 (3' terminal)) of 0.351 ± 0.021.
In the same order, the values of “TTTTTTGCGCAGCATGCGCATTTTTTTTTTTTTTTATTAT” are 0.508 ± 0.031 and 0.418 ± 0.024.
For “TTTTTTGCGCAGCATGCTCATTTTTTTTTTTTTTTATTAG [GATTA]”, in that order: 0.552 ± 0.011 and 0.421 ± 0.058.
For “TTTTTTGCGCAGCATGCTGATTTTTTTTTTTTTTTATTAC [CATTA]”, in that order: 0.405 ± 0.022 and 0.334 ± 0.032.
For “TTTTTTGCGCAGCATGCTGCTTTTTTTTTTTTTTTATTAA [AATTA]”, the background-corrected fluorescence is 0.585 ± 0.024 (dye: Cy3 (3' terminal)) and 0.416 ± 0.035 (dye: Cy5 (3' terminal)).
In the same order, the values of “TTTTTTGCGCATCAGCAGCATTTTTTTTTTTTTTTATGTT [TTGTA]” are 0.575 ± 0.028 and 0.432 ± 0.035.
In the same order, the values of “TTTTTTGCGCATCAGCATCATTTTTTTTTTTTTTTATGTG [GTGTA]” are 0.607 ± 0.043 and 0.452 ± 0.034.
On to “TTTTTTGCGCATCAGCATGATTTTTTTTTTTTTTTATGTC [CTGTA]”, for which the background-corrected fluorescence was determined as 0.454 ± 0.021 (dye: Cy3 (3' terminal)) and 0.351 ± 0.046 (dye: Cy5 (3' terminal)).
In the same order, the values of “TTTTTTGCGCATCAGCATGCTTTTTTTTTTTTTTTATGTA” are 0.549 ± 0.017 and 0.47 ± 0.039.
For “TTTTTTGCGCATCATCAGCATTTTTTTTTTTTTTTATGGT [TGGTA]”, in that order: 0.649 ± 0.027 and 0.561 ± 0.028.
In the same order, the values of “TTTTTTGCGCATCATCATCATTTTTTTTTTTTTTTATGGG [GGGTA]” are 0.661 ± 0.035 and 0.548 ± 0.037.
In the case of “TTTTTTGCGCATCATCATGATTTTTTTTTTTTTTTATGGC [CGGTA]”, the background-corrected fluorescence (dye: Cy3 (3' terminal)) came to 0.545 ± 0.043 and the background-corrected fluorescence (dye: Cy5 (3' terminal)) came out at 0.445 ± 0.026.
For “TTTTTTGCGCATCATCATGCTTTTTTTTTTTTTTTATGGA [AGGTA]”, in that order: 0.712 ± 0.02 and 0.599 ± 0.041.
For “TTTTTTGCGCATCATGAGCATTTTTTTTTTTTTTTATGCT [TCGTA]”, in that order: 0.518 ± 0.029 and 0.393 ± 0.02.
For “TTTTTTGCGCATCATGATCATTTTTTTTTTTTTTTATGCG [GCGTA]”, in that order: 0.587 ± 0.017 and 0.49 ± 0.035.
For “TTTTTTGCGCATCATGATGATTTTTTTTTTTTTTTATGCC [CCGTA]”, the background-corrected fluorescence is 0.436 ± 0.0052 (dye: Cy3 (3' terminal)) and 0.319 ± 0.02 (dye: Cy5 (3' terminal)).
In the same order, the values of “TTTTTTGCGCATCATGATGCTTTTTTTTTTTTTTTATGCA [ACGTA]” are 0.527 ± 0.024 and 0.46 ± 0.036.
“TTTTTTGCGCATCATGCGCATTTTTTTTTTTTTTTATGAT [TAGTA]” displayed a background-corrected fluorescence (dye: Cy3 (3' terminal)) of 0.615 ± 0.028 and a background-corrected fluorescence (dye: Cy5 (3' terminal)) of 0.471 ± 0.03.
For “TTTTTTGCGCATCATGCTCATTTTTTTTTTTTTTTATGAG [GAGTA]”, in that order: 0.602 ± 0.036 and 0.466 ± 0.04.
For “TTTTTTGCGCATCATGCTGATTTTTTTTTTTTTTTATGAC [CAGTA]”, in that order: 0.469 ± 0.0096 and 0.376 ± 0.02.
For “TTTTTTGCGCATCATGCTGCTTTTTTTTTTTTTTTATGAA [AAGTA]”, in that order: 0.594 ± 0.017 and 0.51 ± 0.053.
“TTTTTTGCGCATGAGCAGCATTTTTTTTTTTTTTTATCTT [TTCTA]” gave a background-corrected fluorescence (dye: Cy3 (3' terminal)) of 0.458 ± 0.0056 and a background-corrected fluorescence (dye: Cy5 (3' terminal)) of 0.35 ± 0.024.
For “TTTTTTGCGCATGAGCATCATTTTTTTTTTTTTTTATCTG [GTCTA]”, in that order: 0.55 ± 0.026 and 0.371 ± 0.036.
